Measured values from US20260060994A1, “GLYCOSYLATED COMPOSITIONS AND METHODS OF USE” (Cy Biopharma AG, priority 2023, published 2026).

Experiments:
[1] = Pharmacokinetic experiment in mice, plasma and brain, LC-MS/MS; type: in vivo, C57Bl/6J mice
Method: In a pharmacokinetic experiment in C57Bl/6J mice (3 animals per timepoint; schedule shown below) two example compounds, Cy1 (4-HO-EPT glycoside) and Cy2 (4-HO-DMT glycoside) were dosed at two different concentrations (20 mg/kg dose shown here) and the parent compounds and their de-glycosylated forms, 4-HO-EPT and psilocin (4-HO-DMT), respectively, were measured by LC-MS/MS in plasma and brain tissue samples. For comparison, psilocybin was dosed at 1.5 mg/kg orally and plasma and brain tissue concentrations of psilocin (4-HO-DMT) were measured. Samples were collected at four or five different timepoints (from 10-minutes post dosing up to 6-hours post dosing) following the test article administration.
Schedule of pharmacokinetic experiment shown below.
Results are reported in ng/mL for the concentration in plasma and in ng/g tissue for the concentration measured in brain samples.
Results: The graphs in FIG. 35, FIG. 36, FIG. 37, and FIG. 38 display the time course of concentrations of compounds as indicated. For each time point the data for the individual animals are plotted.

[2] = Glycosylation of 4-HO-MET by GLY enzymes (UDP-glucose), LC-UV/MS; type: biochemical; settings: 0.5 mM 4-OH-MET, 1.25 mM UDP-glucose, 25% (v/v) GLY enzyme, 24 h at 30° C.; estimate from UV peak areas
Method: 4-HO-MET was dissolved in 100% (v/v) DMSO to a concentration of 10 mM. The solution was stored at −20° C. prior to use.
FastAP phosphatase (1 U/uL) from ThermoFisher Scientific (catalog no. EF0651).
GLY enzyme suspensions contain 10 mM Tris-HCl at pH7.4, 250 mM imidazole and 50% (v/v) glycerol.
(§1) The assay conditions were: • 100 mM Tris-HCl, pH 7.4 • 5 mM MgCl2 • 1 mM KCl • 1.25 mM UDP-glucose • 0.5 mM 4-OH-MET • 5% (v/v) DMSO • 0.1 U/uL Fast AP phosphatase • 25% (v/v) GLY enzyme
(§2) Incubation was 24 house at 30° C. Reactions were terminated adding 3 volumes of 75% (v/v) ethanol.
(§3) LC separation was performed using an Agligen 1290 Infinity II UHPLC equipped with a Phenomenex Kinetex XB-C18 column (1.7 um, 100 angstroms, 100×2.1 mm) and 4-HO-MET was detected by absorbance at 210 nm and 268 nm with an Agilent 1260 Infinity II DAD.
(§4) 0.1% Formic acid in water (A) and 0.1% Formic acid in acetonitrile (B) were used as the mobile phases for the elution gradient, with a flow rate of 0.4 ml/min. Retention time for 4-HO-MET using this type of instrument under these condition was 2.6 min. The system was coupled to an Ultivo Triple Quadrupole MS. To verify the presence of possible glycoside products, as SIM (Selected Ion Monitoring) method was used on the MS to analyse for the m/z 381 (theoretical mass to chart ratio of 4-HO-MET-glucoside) and m/z 219 (theoretical mass to charge ratio of 4-HO-MET).
As standard, 4-HO-MET solutions at a concentrations of 500, 250, 125, 62.5, and 31.25 uM were prepared from the 10 mM stock and used for caliboration.
A representative example of the chromatograms obtained with a wavelength of 268 nm for the standard solutions resuspended in the reaction buffer, and the corresponding MS-SIM signal, is shown in FIG. 16. The peak corresponding to 4-HO-MET is indicated.
When analyzing the GLY reactions, 30 of them gave an additional peak with retention time 2.2 min (i.e. in the expected region for a 4-HO-MET glucoside) and molecular mass compatible with the expected glucoside product, together with a corresponding decrease in substrate concentration, compared to the no-enzyme controls.
The method was repeated using various GLY enzymes to produce 4-HO-MET glucosides.
(§5) The enzymes giving the additional peak putatively corresponding to the 4-HO-MET-β-D-glucoside are listed below. […] A correct quantification of the product is not possible without a standard for the specific molecule. However, based on the assumption that the ratio area-to-concentration in the UV chromatograms will be similar to 4-HO-MET, estimates of the relative abundance for the additional peak are also given, expressed as percentage of converted 4-HO-MET. GLY enzymes hits are ranked according to their estimated conversion efficiency.

[3] = Glycosylation of 5-HO-DMT by GLY enzymes (UDP-glucose), LC-UV/MS; type: biochemical; settings: conditions of Examples 1 and 2 repeated for 5-HO-DMT
Method: as §1, §2, §3, §4, §5
(§6) The experiments described in Examples 1 and 2 above were repeated for 4-OH-MiPT, 4-HO-DMT and 5-HO-DMT
(§7) Below is the corresponding data for 4-OH-DMT and 5-HO-DMT.

[4] = Glycosylation of 4-OH-EPT by GLY enzymes (UDP-glucose), LC-UV/MS; type: biochemical; settings: conditions of Examples 1 and 2 repeated for 4-OH-EPT; estimate from UV peak areas
Method: as §1, §2, §3, §4, §5
The experiments described in Examples 1 and 2 above were repeated for 4-OH-EPT.
Below is the corresponding data for 4-OH-EPT.

[5] = Glycosylation of 4-OH-DMT by GLY enzymes (UDP-glucose), LC-UV/MS; type: biochemical; settings: conditions of Examples 1 and 2 repeated for 4-HO-DMT; estimate from UV peak areas
Method: as §1, §2, §3, §4, §5, §6, §7

[6] = Glycosylation of 4-OH-MiPT by GLY enzymes (UDP-glucose), LC-UV/MS; type: biochemical; settings: conditions of Examples 1 and 2 repeated for 4-OH-MiPT; estimate from UV peak areas
Method: as §1, §2, §3, §4, §5, §6
Below is the corresponding data for 4-OH-MiPT.

## CCCN(CC)CCc1c[nH]c2cccc(O[C@@H]3O[C@H](CO)[C@@H](O)[C@H](O)[C@H]3O)c12 [Cy1, 4-HO-EPT glycoside]
[1]; higher doses (20 mg/kg p.o.), brain, as compared to psilocybin 1.5 mg/kg p.o.
  period of exposure in brain: extended period of exposure
[1]; higher doses (20 mg/kg p.o.), plasma, as compared to psilocybin 1.5 mg/kg p.o.
  period of exposure in plasma: extended period of exposure
[1]; p.o. single dose, brain, as compared to the administration of psilocybin 1.5 mg/kg p.o.
  time to peak brain concentration: extended
[1]; p.o. single dose, plasma, as compared to the administration of psilocybin 1.5 mg/kg p.o.
  time to peak plasma concentration: extended

B1: GLY91: glycosyltransferase (UGT), SEQ ID NO: 12 (protein)
chain: MGKQEDAELVIIPFPFSGHILATIELAKRLISQDNPRIHTITILYWGLPFIPQADTIAFLRSLVKNEPRIRLVTLPEVQDPPPMELFVEFAESYILEYVKKMVPIIREALSTLLSSRDESGSVRVAGLVLDFFCVPMIDVGNEFNLPSYIFLTCSAGFLGMMKYLPERHREIKSEFNRSFNEELNLIPGYVNSVPTKVLPSGLFMKETYEPWVELAERFPEAKGILVNSYTALEPNGFKYFDRCPDNYPTIYPIGPILCSNDRPNLDLSERDRILKWLDDQPESSVVFLCFGSLKSLAASQIKEIAQALELVGIRFLWSIRTDPKEYASPNEILPDGFMNRVMGLGLVCGWAPQVEILAHKAIGGFVSHCGWNSILESLRFGVPIATWPMYAEQQLNAFTIVKELGLALEMRLDYVSEYGEIVKADEIAGAVRSLMDGEDVPRRKLKEIAEAGKEAVMDGGSSFVAVKRFIDGL
[2]
  4-OH-MET GLY % (percentage of converted 4-HO-MET): 20.7%
[3]
  5-OH-DMT GLY %: 1%
[4]
  4-OH-EPT GLY % (percentage of converted 4-OH-EPT): 5.4%

B2: GLY70: glycosyltransferase (UGT), SEQ ID NO: 2 (protein)
chain: MAKQQEAELIFIPFPIPGHILATIELAKRLISHQPSRIHTITILHWSLPFLPQSDTIAFLKSLIETESRIRLITLPDVQNPPPMELFVKASESYILEYVKKMVPLVRNALSTLLSSRDESDSVHVAGLVLDFFCVPLIDVGNEFNLPSYIFLTCSASFLGMMKYLLERNRETKPELNRSSDEETISVPGFVNSVPVKVLPPGLFTTESYEAWVEMAERFPEAKGILVNSFESLERNAFDYFDRRPDNYPPVYPIGPILCSNDRPNLDLSERDRILKWLDDQPESSVVFLCFGSLKSLAASQIKEIAQALELVGIRFLWSIRTDPKEYASPNEILPDGFMNRVMGLGLVCGWAPQVEILAHKAIGGFVSHCGWNSILESLRFGVPIATWPMYAEQQLNAFTIVKELGLALEMRLDYVSEYGEIVKADEIAGAVRSLMDGEDVPRRKLKEIAEAGKEAVMDGGSSFVAVKRFIDGL
[2]
  4-OH-MET GLY % (percentage of converted 4-HO-MET): 98.6%
[5]
  4-OH-DMT GLY %: 89.3%
[3]
  5-OH-DMT GLY %: 6%
[4]
  4-OH-EPT GLY % (percentage of converted 4-OH-EPT): 80.5%
[6]
  4-OH-MiPT GLY % (percentage of converted 4-OH-MiPT): 58.4%

B3: GLY74: glycosyltransferase (UGT), SEQ ID NO: 6 (protein)
chain: MRNVELIFIPTPTVGHLVPFLEFARRLIEQDDRIRITILLMKLQGQSHLDTYVKSIASSQPFVRFIDVPELEEKPTLGSTQSVEAYVYDVIERNIPLVRNIVMDILTSLALDGVKVKGLVVDFFCLPMIDVAKDISLPFYVFLTTNSGFLAMMQYLADRHSRDTSVFVRNSEEMLSIPGFVNPVPANVLPSALFVEDGYDAYVKLAILFTKANGILVNSSFDIEPYSVNHFLQEQNYPSVYAVGPIFDLKAQPHPEQDLTRRDELMKWLDDQPEASVVFLCFGSMARLRGSLVKEIAHGLELCQYRFLWSLRKEEVTKDDLPEGFLDRVDGRGMICGWSPQVEILAHKAVGGFVSHCGWNSIVESLWFGVPIVTWPMYAEQQLNAFLMVKELKLAVELKLDYRVHSDEIVNANEIETAIRYVMDTDNNVVRKRVMDISQMIQRATKNGGSSFAAIEKFIYDVIGIKP
[2]
  4-OH-MET GLY % (percentage of converted 4-HO-MET): 36%
[5]
  4-OH-DMT GLY %: 22.4%
[4]
  4-OH-EPT GLY % (percentage of converted 4-OH-EPT): 7%
[6]
  4-OH-MiPT GLY % (percentage of converted 4-OH-MiPT): 19.3%

B4: GLY153: glycosyltransferase (UGT), SEQ ID NO: 20 (protein)
chain: MAETDSPPHVAILPSPGMGHLIPLVELAKRLVHQHNLSVTFIIPTDGSPSKAQRSVLGSLPSTIHSVFLPPVNLSDLPEDVKIETLISLTVARSLPSLRDVLSSLVASGTRVVALVVDLFGTDAFDVAREFKASPYIFYPAPAMALSLFFYLPKLDEMVSCEYSEMQEPVEIPGCLPIHGGELLDPTRDRKNDAYKWLLHHSKRYRLAEGVMVNSFIDLERGALKALQEVEPGKPPVYPVGPLVNMDSNTSGVEGSECLKWLDDQPLGSVLFVSFGSGGTLSFDQITELALGLEMSEQRFLWVARVPNDKVANATYFSVDNHKDPFDFLPKGFLDRTKGRGLVVPSWAPQAQVLSHGSTGGFLTHCGWNSTLESVVNAVPLIVWPLYAEQKMNAWMLTKDVEVALRPKASENGLIGREEIANIVRGLMEGEEGKRVRNRMKDLKDAAAEVLSEAGSSTKALSEVARKWKNHKCTQDCN
[2]
  4-OH-MET GLY % (percentage of converted 4-HO-MET): 6%
[3]
  5-OH-DMT GLY %: 5%

B5: GLY163: glycosyltransferase (UGT), SEQ ID NO: 22 (protein)
chain: MTGELIFIPMPSLSHIASTMEIAKLLVHRDDRLSITVLLISSQYTTSITTYINSLIASSDYDRIRFIHLPELDSEEEPKRPFMSVIDDNKPIVKEAVTNLALSFDPSHRLAGFVIDMFCVGMIEVADELGLPSYPFFTSSTSFLALQFHVQTLADEEEVDITEFKNSDVMLPIPGLVNPLPAKTILPSAMLNKDWLPYVLNGARGFRKTKGIMVNSFAEIESNAVTSLSNSTVPPVYTVGPIINFKGDGQDSDTCTAHKYSNIMTWLDDQPPSSVLFLCFGSLGSFDEEQVKEIARALEGSGHRFLWSLRRPPPKDKTMSFPTEYENFEEVLPEGFVDRTVGMGKVMGWAPQVAVLAHPSIGGFVTHCGWNSILESVWFGVPMAAWPLYAEQQFNAFHMVVELGLAVEIKMDYRKDYAILGLQEERVSAEVIEKGIRCLMEEDNDARKKVKEMSEISRKALMDGGSSHAVLGQFIEDVMNNISA
[2]
  4-OH-MET GLY % (percentage of converted 4-HO-MET): 40.5%
[5]
  4-OH-DMT GLY %: 10.6%
[4]
  4-OH-EPT GLY % (percentage of converted 4-OH-EPT): 46.3%
[6]
  4-OH-MiPT GLY % (percentage of converted 4-OH-MiPT): 61.6%

B6: GLY170: glycosyltransferase (UGT), SEQ ID NO: 28 (protein)
chain: MKKINLVVIPFAGVGHLVSTIEFIKRLLSRDDRFSVTILVIKSPLEHSLDPNTSPPSLPSSHPHIQFINVRSLNPPPIEVFLKSPEKYFTLYIESYKLKVKEIIVDHVLPNSAPLGGLFLDMFSTSMVDVAQELGVPSYVFLTSGAGFLGFVLYLQTRHDRGGAEFELSDIESYIPSYVNPVPSRVLPSLAFNREGGYVSFVNVARNMKKTKGIIVNTVFELESHAISSLLMDGATPPVYAVGPLIDHKGESHFRTDQAKRDKIIKWLDDQPTKSVIFLCFGSFGSFGVPQLREIAIGLEQSGARFLWSIRQAKSIFEMPIECEKPEEFLPQGFLDRTKELGMICGWTPQIEVLAHRAIGGFVSHCGWNSILESLWHGVPIVTWPLYAEQQINAFQIVKDLGLGVELRLDYRRDGGDVDVVMRDEIEKAVRYVMDGDSEVRQRVQEASEKCRKAVVEGGSSFSSIGSLIEAILANIS
[2]
  4-OH-MET GLY % (percentage of converted 4-HO-MET): 31.6%
[5]
  4-OH-DMT GLY %: 15.7%
[4]
  4-OH-EPT GLY % (percentage of converted 4-OH-EPT): 23.4%
[6]
  4-OH-MiPT GLY % (percentage of converted 4-OH-MiPT): 38.8%
